Laboratory results reported in paper PMC12915166 (2025).

T1: HA-2 (HA-2V allele), encoded by MYO1G peptide on HLA-A*02:01 (human)
T1 peptide: YIGEVLVSV

T2: HA-1 (HA-1H allele), encoded by ARHGAP45 peptide on HLA-A*02:06 (human)
T2 peptide: VLHDDLLEA


How the values were obtained:
[1] = molecular target: T1, HA-2 (HA-2V allele), encoded by MYO1G …
[2] = molecular target: T2, HA-1 (HA-1H allele), encoded by …; assay: activation reporter or marker

EC50 of peptide [1] | binding result [2] | Binder
0.7 nM | – | anti-HA-2V TCR clone 7 (TCR) alpha TRAV21 TRAJ42 CDR3: AVRSGYGGSQGNL beta TRBV7-8 TRBJ2-5 CDR3: ASSLAGGSLQETQY
21 nM | – | anti-HA-2V TCR clone 6 (TCR) alpha TRAV38-2DV8 TRAJ34 CDR3: AYRRFYNTDKLI beta TRBV19 TRBJ1-1 CDR3: ASRSAGYAEAF
– | recognises | anti-HA-1H TCR clone 7 (TCR) alpha TRAV3 TRAJ40 CDR3: AVRAPTSGTYKYI beta TRBV7-9 TRBJ2-1 CDR3: ASSLVSGNEQF
